Laboratory results taken from the supplement of paper PMC9233669.
This sample holds only a part of the variants without activity.

Tests used:
[1] = test system: biotinyl-Val-oxazolone; test: self-aminoacylation, catalytic enhancement (BVO) (fold over background); higher = more active; k-Seq, kA / k0A0; sequences stand for … in GGGAAUGGAUCCACAUCUACGAAUUC…UUCACUGCAGACUUGACGAAGCUG
Procedure, shortened: (§1)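 Each biotinyl-aminoacyl-oxazolone, at 2–1250 μM, was incubated with mutagenized RNA pools (0.43 μM) carrying a 21-nt variable region. The 50 μL reactions contained HEPES/NaCl/KCl/MgCl2/CaCl2 buffer with 5% acetonitrile at pH 6.9–7.0 and ran for 90 minutes at room temperature. After streptavidin capture, RNA was measured by qPCR in triplicate and by Illumina sequencing, and catalytic enhancement was calculated as median kA over the uncatalyzed rate from a pseudo-first-order fit of per-sequence fraction reacted.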

[2] = test system: biotinyl-Phe-oxazolone; test: self-aminoacylation, catalytic enhancement (BFO) (fold over background); higher = more active; k-Seq, kA / k0A0; sequences stand for … in GGGAAUGGAUCCACAUCUACGAAUUC…UUCACUGCAGACUUGACGAAGCUG
Procedure, shortened: as §1

[3] = test system: biotinyl-Ile-oxazolone; test: self-aminoacylation, catalytic enhancement (BIO) (fold over background); higher = more active; k-Seq, kA / k0A0; sequences stand for … in GGGAAUGGAUCCACAUCUACGAAUUC…UUCACUGCAGACUUGACGAAGCUG
Procedure, shortened: as §1

[4] = test system: biotinyl-Leu-oxazolone; test: self-aminoacylation, catalytic enhancement (BLO) (fold over background); higher = more active; k-Seq, kA / k0A0; sequences stand for … in GGGAAUGGAUCCACAUCUACGAAUUC…UUCACUGCAGACUUGACGAAGCUG
Procedure, shortened: as §1

[5] = test system: biotinyl-Met-oxazolone; test: self-aminoacylation, catalytic enhancement (BMO) (fold over background); higher = more active; k-Seq, kA / k0A0; sequences stand for … in GGGAAUGGAUCCACAUCUACGAAUUC…UUCACUGCAGACUUGACGAAGCUG
Procedure, shortened: as §1

[6] = test system: biotinyl-Trp-oxazolone; test: self-aminoacylation, catalytic enhancement (BWO) (fold over background); higher = more active; k-Seq, kA / k0A0; sequences stand for … in GGGAAUGGAUCCACAUCUACGAAUUC…UUCACUGCAGACUUGACGAAGCUG
Procedure, shortened: as §1

Sequence | self-aminoacylation [1] | self-aminoacylation [2] | self-aminoacylation [3] | self-aminoacylation [4] | self-aminoacylation [5] | self-aminoacylation [6]
CCACACUUCAAGCGAUCGGUA [Fam1B.1 aminoacylation ribozyme variant] | 2.2 | 1.73 | 1.22 | 1.58 | 1.48 | 0.843
CCACACUUCAAGCGAUCGGUU [Fam1B.1 aminoacylation ribozyme variant] | 2.08 | 3.6 | 1.77 | 1.53 | 1.48 | 1.77
CCACACUUCAAGCUAUCGGCC [Fam1B.1 aminoacylation ribozyme variant] | 1.51 | 0.862 | 1.62 | 1.82 | 1.7 | 1.81
CCACACUUCAAGCUAUCGGGC [Fam1B.1 aminoacylation ribozyme variant] | 1.76 | 1.57 | 1.67 | 1.45 | 1.46 | 2.2
CCACACUUCAAGCUAUGGGUC [Fam1B.1 aminoacylation ribozyme variant] | 0.911 | 0.774 | 0.966 | 0.763 | 0.875 | 0.724
CCACACUUCAAGGAAGCGGUC [Fam1B.1 aminoacylation ribozyme variant] | 1.28 | 0.364 | 0.986 | 1.13 | 1.06 | 0.619
CCACACUUCAAGGAAUCGGGC [Fam1B.1 aminoacylation ribozyme variant] | 2.85 | 1.44 | 2.98 | 2.86 | 3.01 | 3.41
CCACACUUCAAGGAAUCGGUG [Fam1B.1 aminoacylation ribozyme variant] | 4.61 | 52.1 | 4.9 | 10.5 | 7.21 | 6.57
CCACACUUCAAGGAAUCGGUU [Fam1B.1 aminoacylation ribozyme variant] | 1.57 | 0.969 | 1.34 | 1.43 | 1.39 | 1.16
CCACACUUCAAGGAAUCUGUC [Fam1B.1 aminoacylation ribozyme variant] | 0.446 | 0.473 | 0.384 | 0.318 | 0.442 | 0.287
CCACACUUCAAGUAAUCGGUG [Fam1B.1 aminoacylation ribozyme variant] | 2.98 | 33.4 | 3.28 | 6.33 | 4.68 | 4.68
CCACACUUCAAGUACUCGGUC [Fam1B.1 aminoacylation ribozyme variant] | 1.09 | 0.703 | 1.17 | 0.875 | 1.06 | 0.789
CCACACUUCAAGUAUUCGGUC [Fam1B.1 aminoacylation ribozyme variant] | 1.64 | 0.932 | 1.63 | 1.39 | 1.42 | 1.52
CCACACUUCAAUCAAGCGGUC [Fam1B.1 aminoacylation ribozyme variant] | 0.811 | 0.972 | 0.709 | 0.694 | 0.634 | 0.769
CCACACUUCAAUCAAUCCGUC [Fam1B.1 aminoacylation ribozyme variant] | 0.823 | 0.663 | 0.655 | 0.61 | 0.641 | 0.611
CCACACUUCAAUCAAUUGGUC [Fam1B.1 aminoacylation ribozyme variant] | 0.616 | 0.876 | 0.598 | 0.545 | 0.527 | 0.719
CCACACUUCAAUCAGUCGGUC [Fam1B.1 aminoacylation ribozyme variant] | 0.796 | 0.869 | 0.963 | 0.723 | 0.815 | 0.687
CCACACUUCACGAAAUCGGUC [Fam1B.1 aminoacylation ribozyme variant] | 1.09 | 0.814 | 0.987 | 1.16 | 1.07 | 1.02
CCACACUUCACGCAAUCGAUC [Fam1B.1 aminoacylation ribozyme variant] | 0.606 | 0.676 | 0.568 | 0.514 | 0.55 | 0.618
CCACACUUCACGCGAUCGGUC [Fam1B.1 aminoacylation ribozyme variant] | 2.17 | 6.79 | 1.46 | 1.84 | 1.48 | 2.37
CCACACUUCACGUAAUCGGUC [Fam1B.1 aminoacylation ribozyme variant] | 0.914 | 0.967 | 0.892 | 0.733 | 0.822 | 0.591
CCACACUUCAGGCAAUCGUUC [Fam1B.1 aminoacylation ribozyme variant] | 0.792 | 0.772 | 0.704 | 0.585 | 0.618 | 0.422
CCACACUUCAGGCUAUCGGUC [Fam1B.1 aminoacylation ribozyme variant] | 1.33 | 0.514 | 1.33 | 1.23 | 1.1 | 1.39
CCACACUUCAGGUAAUCGGUC [Fam1B.1 aminoacylation ribozyme variant] | 1.07 | 1.07 | 0.805 | 0.824 | 0.887 | 0.712
CCACACUUCAUACAAUCGGUC [Fam1B.1 aminoacylation ribozyme variant] | 0.744 | 0.729 | 0.618 | 0.703 | 0.608 | 0.726
CCACACUUCAUGCAAGCGGUC [Fam1B.1 aminoacylation ribozyme variant] | 0.835 | 0.633 | 1.08 | 1.01 | 0.854 | 0.681

Sequence | self-aminoacylation [1] | self-aminoacylation [2] | self-aminoacylation [3] | self-aminoacylation [4] | self-aminoacylation [5] | self-aminoacylation [6]
CCACACUUCAUGCAAUCGGUG [Fam1B.1 aminoacylation ribozyme variant] | 2.65 | 27 | 2.55 | 5.5 | 4.27 | 4.65
CCACACUUCCAGCAACCGGUC [Fam1B.1 aminoacylation ribozyme variant] | 1.34 | 0.744 | 1.15 | 0.925 | 0.879 | 1.14
CCACACUUCCAGCAAUCGCUC [Fam1B.1 aminoacylation ribozyme variant] | 1.83 | 1.22 | 1.69 | 1.35 | 1.54 | 1.59
CCACACUUCCAGCAAUGGGUC [Fam1B.1 aminoacylation ribozyme variant] | 1.38 | 1.22 | 1.34 | 0.88 | 0.956 | 0.884
CCACACUUCGAGCAAUCGGUA [Fam1B.1 aminoacylation ribozyme variant] | 1.06 | 0.573 | 0.715 | 0.849 | 0.716 | 1
CCACACUUCGAGCAAUCGGUG [Fam1B.1 aminoacylation ribozyme variant] | 1.91 | 15.2 | 1.62 | 3.3 | 2.48 | 2.07
CCACACUUCGAGCAAUUGGUC [Fam1B.1 aminoacylation ribozyme variant] | 0.956 | 0.518 | 0.79 | 0.747 | 0.721 | 0.375
CCACACUUCUAGCAAUCGGUG [Fam1B.1 aminoacylation ribozyme variant] | 2.62 | 19.8 | 2.65 | 4.64 | 3.47 | 3.09
CCACACUUCUAGCAAUCGGUU [Fam1B.1 aminoacylation ribozyme variant] | 1.36 | 1.17 | 1.34 | 1.13 | 0.978 | 1.12
CCACACUUCUAGCCAUCGGUC [Fam1B.1 aminoacylation ribozyme variant] | 1.01 | 1.09 | 0.924 | 0.778 | 0.683 | 0.962
CCACACUUGAAGCAAUCCGUC [Fam1B.1 aminoacylation ribozyme variant] | 1 | 0.745 | 1.02 | 0.905 | 0.993 | 0.76
CCACACUUGAAGCAAUCGGUA [Fam1B.1 aminoacylation ribozyme variant] | 1.25 | 0.696 | 1.07 | 1.13 | 0.976 | 0.948
CCACACUUGAAGCAAUCGGUC [Fam1B.1 aminoacylation ribozyme variant] | 0.926 | 0.778 | 0.836 | 0.735 | 0.782 | 0.805
CCACACUUGAAGCCAUCGGUC [Fam1B.1 aminoacylation ribozyme variant] | 1.47 | 0.99 | 1.24 | 0.811 | 1.24 | 1.6
CCACACUUGAGGCAAUCGGUC [Fam1B.1 aminoacylation ribozyme variant] | 1.81 | 1.28 | 1.63 | 1.6 | 1.48 | 1.86
CCACACUUUAAGCAACCGGUC [Fam1B.1 aminoacylation ribozyme variant] | 0.884 | 0.959 | 0.795 | 0.844 | 0.613 | 0.72
CCACACUUUAAGCAAUCGGCC [Fam1B.1 aminoacylation ribozyme variant] | 1.74 | 1.64 | 1.52 | 1.22 | 1.58 | 1.85
CCACACUUUGAGCAAUCGGUC [Fam1B.1 aminoacylation ribozyme variant] | 1.06 | 0.83 | 1.05 | 0.96 | 0.858 | 0.721
CCACAGUUCAAGCAAUGGGUC [Fam1B.1 aminoacylation ribozyme variant] | 1.05 | 0.542 | 1.04 | 0.763 | 1.03 | 0.726
CCACAGUUCAAGCACUCGGUC [Fam1B.1 aminoacylation ribozyme variant] | 1.62 | 3.53 | 1.16 | 1.73 | 1.3 | 0.897
CCACAUCAAACAAUCGGUCUG [Fam1A.1 aminoacylation ribozyme variant] | 1.07 | 1.46 | 1.13 | 1.05 | 1.04 | 1.98
CCACAUUUCAAGCAAUCGGCC [Fam1B.1 aminoacylation ribozyme variant] | 3.56 | 3.98 | 3.63 | 3.19 | 4.62 | 4.96
CCACAUUUCAAGCGAUCGGUC [Fam1B.1 aminoacylation ribozyme variant] | 1.64 | 1.52 | 1.54 | 1.62 | 1.31 | 1.16
CCACAUUUCAAGCUAUCGGUC [Fam1B.1 aminoacylation ribozyme variant] | 1.33 | 1.03 | 1.4 | 1.16 | 1.1 | 1.03
CCACAUUUCAAGUAAUCGGUC [Fam1B.1 aminoacylation ribozyme variant] | 1.05 | 2.1 | 1.21 | 1.14 | 1.03 | 1.77
